The assay concerns the target human glycerol kinase (His-GK) (human) (UniProt P32189). Description: native gel or EMSA; native-PAGE without the denaturants of SDS-PAGE; purified His-GK ran at ~100 kDa, against ~55 kDa by 10% SDS-PAGE.

This is an account of results in PMC10130975.

Broadly, the stoichiometry N is the number of molecules, sites or subunits per partner or assembly.

As for “human glycerol kinase (His-GK) (from UniProt P32189 1-559) (enzyme)”, the stoichiometry N was 2.
